Reference: patent publication US20110262438A1 (Ablynx, published 2011)

B1: 08A5 with Tag-1 (VHH)
VHH: EVQLVESGGGLVQAGDSLRLSCAASGLTFSNYDMGWFRQAPGKEREFVGASWWSGGAPYYSDSVKGRFTISRDNAKNTVYLQANSLRPEDTAVYYCAAKRLRSFASGGSYDYWGQGTQVTVSS
B2: 08A10 with Tag-1 (VHH)
VHH: EVQLVESGGGLVQAGGSLRLSCAASGSIFSIAAMGWYRQATGKQRELVATITDGGTTTYADSVKGRVTISRDRSANTVYLAMNNLKPDDTAVYYCYAYLRYTSRVPGDNYWGQGTQVTVSS
B3: 07B11 with Tag-1 (VHH)
VHH: EVQLVESGGNLVQAGGSLGLSCAASVSISSIHIMGWYRQAPGKQRDLVATITSGGSTAYADSVKGRFTVSKDNAKNTVYLQMDSLKPEDTSVYYCAAEVRNGVFGKWNHYWGQGTQVTVSS
B4: 07C3 with Tag-1 (VHH)
VHH: EVQLVESGGGLVQAGESLTLSCAASGRTLSAYIMGWFRQAPGKEREFVAGIWSGGYTHLADSAKGRFSISRDNAKNTVYLQMNGLKPEDTAVYYCAAGLRGRQYSNWGQGTQVTVSS
B5: 08A5 with Tag-2 (VHH)
VHH: EVQLVESGGGLVQAGDSLRLSCAASGLTFSNYDMGWFRQAPGKEREFVGASWWSGGAPYYSDSVKGRFTISRDNAKNTVYLQANSLRPEDTAVYYCAAKRLRSFASGGSYDYWGQGTQVTVSS
notes: Purified monovalent Nanobody from E. coli (pAX100)
B6: 08A10 with Tag-2 (VHH)
VHH: EVQLVESGGGLVQAGGSLRLSCAASGSIFSIAAMGWYRQATGKQRELVATITDGGTTTYADSVKGRVTISRDRSANTVYLAMNNLKPDDTAVYYCYAYLRYTSRVPGDNYWGQGTQVTVSS
notes: as for B5
B7: 07B11 with Tag-2 (VHH)
VHH: EVQLVESGGNLVQAGGSLGLSCAASVSISSIHIMGWYRQAPGKQRDLVATITSGGSTAYADSVKGRFTVSKDNAKNTVYLQMDSLKPEDTSVYYCAAEVRNGVFGKWNHYWGQGTQVTVSS
notes: Purified monovalent Nanobody from E. coli (pAX100); also called 707B11
B8: 07C3 with Tag-2 (VHH)
VHH: EVQLVESGGGLVQAGESLTLSCAASGRTLSAYIMGWFRQAPGKEREFVAGIWSGGYTHLADSAKGRFSISRDNAKNTVYLQMNGLKPEDTAVYYCAAGLRGRQYSNWGQGTQVTVSS
notes: Purified monovalent Nanobody from E. coli (pAX100); also called 7CXCR07C3
B9: Mab 11G8 (R&D Systems) (antibody, V domains shown)
VH: EVKLVESGGDLVQPGGSLKLSCATSGFTFSDYYMFWVRQTPEKRLEWVAYITNGGDRSYYSDTVTGRFIISRDNAKNTLYLQMSRLKSEDTAMYYCARQGNWAAWFVYWGQGTLVTVSA
VL: DVLMTQTPLSLPVSLGDQASISCRSSHYIVHSDGNTYLEWYLQKPGQSPKLLIYKVSNRFSGVPDRFSGSGSGTDFTLKISRVEAEDLGIYYCFQGSHVPLTFGAGTKLELKR

target: T1, Human CXCR7 (human, UniProt P25106 1-362); assay: FACS, ratio of Hek293 hCXCR7 signal over control cells
T1 construct: also called hCXCR7; CXCR7-LP
Description: Clones representing distinct Nanobody B-cell lineages were tested as periplasmic extracts for their binding to cell surface exposed CXCR7. In this assay, 5-fold dilutions of periplasmic extract were incubated with Hek293 hCXCR7 and Hek293 wt cells. Binding of the Nanobodies was detected using mouse anti-myc (Serotec), followed by anti-mouse IgG-PE (Jackson Immununoresearch). Binding signals of selected Nanobody clones (mcf values and ratios of binding) are represented in Table B-8 and indicate that the Nanobodies do bind to cellular human CXCR7.

T1 sequence (P25106 whole entry): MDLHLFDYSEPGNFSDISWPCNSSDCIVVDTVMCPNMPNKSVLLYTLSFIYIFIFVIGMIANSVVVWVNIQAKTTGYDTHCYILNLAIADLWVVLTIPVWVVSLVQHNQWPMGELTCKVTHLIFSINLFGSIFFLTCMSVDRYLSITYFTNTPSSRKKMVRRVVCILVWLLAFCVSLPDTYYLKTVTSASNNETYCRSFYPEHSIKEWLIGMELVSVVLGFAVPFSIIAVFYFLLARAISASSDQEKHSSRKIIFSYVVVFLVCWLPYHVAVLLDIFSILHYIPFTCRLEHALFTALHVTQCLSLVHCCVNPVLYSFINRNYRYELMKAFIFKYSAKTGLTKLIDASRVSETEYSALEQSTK

**Q.** For B1, which “Fod Hek CXCR7/CXCR4” value is on record?
**A.** 60.1 fold

**Q.** For B2, which “Fod Hek CXCR7/CXCR4” value is on record?
**A.** 85.1 fold

**Q.** For B3, which “Fod Hek CXCR7/CXCR4” value is on record?
**A.** 110 fold

**Q.** For B4, which “Fod Hek CXCR7/CXCR4” value is on record?
**A.** 73.2 fold

target: T1, Human CXCR7; assay: displacement of 75 pM [125I]-CXCL12 from NIH3T3-hCXCR7 cells
Description: In order to assess the competition capacity, Nanobodies were evaluated in SDF1 ligand displacement assays using stable NIH3T3-hCXCR7 cells. 24 h after seeding the cells, the cells were pre-incubated for 1 h at 4° C. with a dilution series of purified monovalent Nanobodies and the corresponding C-terminal Tag-2 tagged fusion proteins to the human serum albumin binding Nanobody Alb8 (see Table B-4: SEQ ID NOs: 44 to 48 wherein the polypeptides are all C-terminal tagged with Tag-2). Also reference molecules Mab 8F11 (Biolegend), Mab 11G8 (R&D) and unlabelled SDF1 were included in the assay. Radiolabeled [¹²⁵I]-CXCL12 was diluted and added to the cells to reach a final concentration of 75 pM and cells were incubated for 3 h at 4° C. After incubation, cells were washed twice, lysed with RIPA buffer and the ¹²⁵I signal was measured. The competition of tested Nanobodies and 8F11 Mab is between 73 and 83%, relative to competition with unlabelled SDF1. This level of displacement correspond to a 100% blocking of the CXCR7 protein, as the remaining SDF-1 binding is believed not to be CXCR7 mediated, but due to the SDF-1 interaction with heparan sulfate proteoglycans. Fusion to the human serum albumin-binding Nanobody Alb8 has no significant effect on Ki values.

**Q.** For Mab 8F11 (Biolegend) (antibody), which displacement (% relative to cold SDF1) is on record?
**A.** 73%

**Q.** How did the “displacement (% relative to cold SDF1)” value turn out when B5 was run?
**A.** 77%

**Q.** For B6, which “displacement (% relative to cold SDF1)” value is on record?
**A.** 75%

**Q.** With B7 as the molecule, how does the “displacement (% relative to cold SDF1)” value read?
**A.** 75%

**Q.** B8 was tested. Which “displacement (% relative to cold SDF1)” value did it give?
**A.** 78%

**Q.** For B9, which “displacement (% relative to cold SDF1)” value is on record?
**A.** 24%

target: T1, Human CXCR7; assay: competition FACS, 4 nM biotinylated SDF1 on HEK-hCXCR7 cells
Description: The potency of Nanobody 7CXCR07C3 and Mab 8F11 (Biolegend) to compete with SDF1 was evaluated in competition FACS with HEK-hCXCR7 cells. Cells were incubated simultaneously with 4 nM biotinylated SDF1 (R&D) and with diluted test molecules, for 2 h at 4° C. Binding of biotinylated SDF1 was detected using streptavidin-PE. Competition curves are depicted in FIG. 1.

**Q.** With Mab 8F11 (Biolegend) (antibody) as the molecule, how does the competition (% relative to unlabelled SDF1) read?
**A.** > 95%

**Q.** With B8 as the molecule, how does the “competition (% relative to unlabelled SDF1)” value read?
**A.** > 95%
